The target of this data set is T1, Atu1419-H3A H141A;H192A;H214A (Agrobacterium fabrum C58) (UniProt A9CJ36).
T1 sequence: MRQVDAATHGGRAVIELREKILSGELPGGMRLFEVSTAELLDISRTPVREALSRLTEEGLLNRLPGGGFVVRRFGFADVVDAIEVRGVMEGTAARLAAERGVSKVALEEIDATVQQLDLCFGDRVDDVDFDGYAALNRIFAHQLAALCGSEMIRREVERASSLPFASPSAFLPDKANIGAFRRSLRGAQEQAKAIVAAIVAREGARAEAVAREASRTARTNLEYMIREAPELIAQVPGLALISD
Description: EMSA. As to conditions: EMSA: 50 mM Tris-HCl pH 8, 150 mM NaCl, 30 nM DNA, 30 min at room temperature; gel 6% or 12% PAGE in TBE at 4 C. (In general: In EMSA bound probe runs differently from free probe, usually more slowly.)

The source of these data is article PMC7797058, “Characterization of the first tetrameric transcription factor of the GntR superfamily with allosteric regulation from the bacterial pathogen Agrobacterium fabrum” (Nucleic Acids Research, 2020).

Consider “AAGCGCCTGAACTGATTGCGCAGGTTCCGGGTCTCGCACTCATCAGCGACTAAGCGGCGGAAATCGCTGCAAATCCAGGGGTGGCGCCTTTTGGCGCCGCCTTTATTTTTGTCGACACCCTCCCTGACGCGGTAATTTTGCGCTTGCAATTTATCAAAGCACAGCGTTTCATGTATACATAGATGCGATTGCCAGGGAGGAGATGACAATGGCAAATTCCAGTCTGACCGAGGTTTTGAAGCAATATCCGAACCCCGTTGAAATGCTC (double strand) [Patu1420]”, for which the binding entry is on record as “binds”.
